Source: patent publication US20210040184A1 (ATRECA, published 2021)

What was measured:
Assay in all cases: cell-based or functional assay
[1] = biological target: HIV-1 DU422.1 envelope (Env) on Env.IMC.LucR virus (HIV-1 clade C)
[2] = biological target: HIV-1 CNE20 envelope (Env) on Env.IMC.LucR virus (HIV-1 clade BC)
[3] = biological target: HIV-1 CAP45.2.00.G3 envelope (Env) on Env.IMC.LucR virus (HIV-1 clade C)
[4] = biological target: HIV-1 X1632_S2_B10 envelope (Env) on Env.IMC.LucR virus (HIV-1 clade G)
[5] = biological target: HIV-1 AC10.0.29 envelope (Env) on Env.IMC.LucR virus (HIV-1 clade B)
[6] = biological target: HIV-1 DU172.17 envelope (Env) on Env.IMC.LucR virus (HIV-1 clade C)
[7] = biological target: HIV-1 REJO4541.67 envelope (Env) on Env.IMC.LucR virus (HIV-1 clade B)
[8] = biological target: HIV-1 ZM233M.PB6 envelope (Env) on Env.IMC.LucR virus (HIV-1 clade C)
[9] = biological target: HIV-1 WITO4160.33 envelope (Env) on Env.IMC.LucR virus (HIV-1 clade B)
[10] = biological target: HIV-1 THRO4156.18 envelope (Env) on Env.IMC.LucR virus (HIV-1 clade B)

Binder	IC50 of virus neutralization (TZM-BL, luciferase) [1] [µg/mL]	IC50 of virus neutralization (TZM-BL, luciferase) [2] [µg/mL]	IC50 of virus neutralization (TZM-BL, luciferase) [3] [µg/mL]	IC50 of virus neutralization (TZM-BL, luciferase) [4] [µg/mL]	IC50 of virus neutralization (TZM-BL, luciferase) [5] [µg/mL]	IC50 of virus neutralization (TZM-BL, luciferase) [6] [µg/mL]	IC50 of virus neutralization (TZM-BL, luciferase) [7] [µg/mL]	IC50 of virus neutralization (TZM-BL, luciferase) [8] [µg/mL]	IC50 of virus neutralization (TZM-BL, luciferase) [9] [µg/mL]	IC50 of virus neutralization (TZM-BL, luciferase) [10] [µg/mL]
Germ17 (antibody, V domains shown) VH: QVDLVQSGAVVKKPGDSVRVSCEAQGYRFPDYIIHWIRRAPGQGPEWMGWMNPMGGQVNIPWKFQGRVSMTRDTSIETAYMDLRGLRSDDTAVYYCVRDRSNGSGKRFESSNWFLDLWGRGTLVTVSS VL: QSALTQPRSVSGSPGQSVTISCTGTHNLVSWCQHHPGKAPKLMIYDFNKRPSGVPDRFSGSGSGGTASLTISGLQAEDEAEYFCWAYEAFGGGTKLTVL	> 50	0.081	0.037	> 50	> 50	0.117	0.033			
Cd4bs_H53MS_H54GY (antibody, V domains shown) VH: ADLVQSGAVVKKPGDSVRISCEAQGYRFPDYIIHWIRRAPGQGPEWMGWMNPSYGQVNIPWKFQGRVSMTRDTSIETAFLDLRGLKSDDTAVYYCVRDRSNGSGKRFESSNWFLDLWGRGTAVTIQS VL: QSALTQPRSVSASPGQSVTISCTGTHNLVSWCQHQPGRAPKLLIYDFNKRPSGVPDRFSGSGSGGTASLTITGLQDDDDAEYFCWAYEAFGGGTKLTVL	0.89	0.047	0.03	9.87	3	0.273	0.044	0.096	0.15	
NglycoSA (antibody, V domains shown) VH: ADLVQSGAVVKKPGDSVRISCEAQGYRFPDYIIHWIRRAPGQGPEWMGWMNPMGGQVNIPWKFQGRVSMTRDTSIETAFLDLRGLKSDDTAVYYCVRDRSNGAGKRFESSNWFLDLWGRGTAVTIQS VL: QSALTQPRSVSASPGQSVTISCTGTHNLVSWCQHQPGRAPKLLIYDFNKRPSGVPDRFSGSGSGGTASLTITGLQDDDDAEYFCWAYEAFGGGTKLTVL	> 50	0.05	0.037	> 50	> 50	0.11	0.04	0.151	0.179	0.929
CysCV (antibody, V domains shown) VH: ADLVQSGAVVKKPGDSVRISCEAQGYRFPDYIIHWIRRAPGQGPEWMGWMNPMGGQVNIPWKFQGRVSMTRDTSIETAFLDLRGLKSDDTAVYYCVRDRSNGSGKRFESSNWFLDLWGRGTAVTIQS VL: QSALTQPRSVSASPGQSVTISCTGTHNLVSWVQHQPGRAPKLLIYDFNKRPSGVPDRFSGSGSGGTASLTITGLQDDDDAEYFCWAYEAFGGGTKLTVL	> 50	0.037	0.035	> 50	> 50	0.102	≤ 0.02	0.079	0.186	1.4
Germ23_NglycoSA_CysCV (antibody, V domains shown) VH: QVQLVQSGAEVKKPGASVKVSCEASGYRFPDYIIHWIRRAPGQGPEWMGWMNPMGGQVNIPWKFQGRVSMTRDTSIETAYMELRGLRSDDTAVYYCVRDRSNGAGKRFESSNWFLDLWGRGTLVTVSS VL: QSALTQPRSVSGSPGQSVTISCTGTHNLVSWVQHHPGKAPKLMIYDFNKRPSGVPDRFSGSGSGGTASLTISGLQAEDEAEYFCWAYEAFGGGTKLTVL	> 50	0.064	0.05	> 50	> 50	0.831	≤ 0.02			
Germ12 (antibody, V domains shown) VH: QVDLVQSGAVVKKPGDSVRVSCEAQGYRFPDYIIHWIRRAPGQGPEWMGWMNPMGGQVNIPWKFQGRVSMTRDTSIETAYMDLRGLRSDDTAVYYCVRDRSNGSGKRFESSNWFLDLWGRGTLVTVSS VL: QSALTQPRSVSGSPGQSVTISCTGTHNLVSWCQHQPGRAPKLLIYDFNKRPSGVPDRFSGSGSGGTASLTISGLQDEDDAEYFCWAYEAFGGGTKLTVL	> 50	0.244	0.063	> 50	> 50	0.267	0.092			
CysCA (antibody, V domains shown) VH: ADLVQSGAVVKKPGDSVRISCEAQGYRFPDYIIHWIRRAPGQGPEWMGWMNPMGGQVNIPWKFQGRVSMTRDTSIETAFLDLRGLKSDDTAVYYCVRDRSNGSGKRFESSNWFLDLWGRGTAVTIQS VL: QSALTQPRSVSASPGQSVTISCTGTHNLVSWAQHQPGRAPKLLIYDFNKRPSGVPDRFSGSGSGGTASLTITGLQDDDDAEYFCWAYEAFGGGTKLTVL	> 50	0.034	0.035	> 50	> 50	0.169	≤ 0.02			
Germ23 (antibody, V domains shown) VH: QVQLVQSGAEVKKPGASVKVSCEASGYRFPDYIIHWIRRAPGQGPEWMGWMNPMGGQVNIPWKFQGRVSMTRDTSIETAYMELRGLRSDDTAVYYCVRDRSNGSGKRFESSNWFLDLWGRGTLVTVSS VL: QSALTQPRSVSGSPGQSVTISCTGTHNLVSWCQHHPGKAPKLMIYDFNKRPSGVPDRFSGSGSGGTASLTISGLQAEDEAEYFCWAYEAFGGGTKLTVL	> 50	0.066	0.035	> 50	> 50	0.182	0.037			
Hydro2 (antibody, V domains shown) VH: ADLVQSGAVVKKPGDSVRISCEAQGYRFPDYIIHWIRRAPGQGPEWMGWMNPMGGQVNIPQKFQGRVSMTRDTSIETAFLDLRGLKSDDTAVYYCVRDRSNGSGKRFESSNWFLDLWGRGTAVTIQS VL: QSALTQPRSVSASPGQSVTISCTGTHNLVSWCQHQPGRAPKLLIYDFNKRPSGVPDRFSGSGSGGTASLTITGLQDDDDAEYFCWAYENFGGGTKLTVL	> 50	0.049	0.039	> 50	> 50	0.131	≤ 0.02			
Germ18 (antibody, V domains shown) VH: QVQLVQSGAEVKKPGASVKVSCEASGYRFPDYIIHWIRRAPGQGPEWMGWMNPMGGQVNIPWKFQGRVSMTRDTSIETAYMELRGLRSDDTAVYYCVRDRSNGSGKRFESSNWFLDLWGRGTLVTVSS VL: QSALTQPRSVSGSPGQSVTISCTGTHNLVSWCQHQPGRAPKLLIYDFNKRPSGVPDRFSGSGSGGTASLTISGLQDEDDAEYFCWAYEAFGGGTKLTVL	> 50	0.081	0.036	> 50	> 50	0.223	0.039			
Germ6 (antibody, V domains shown) VH: ADLVQSGAVVKKPGDSVRVSCEAQGYRFPDYIIHWIRRAPGQGPEWMGWMNPMGGQVNIPWKFQGRVSMTRDTSIETAYLDLRGLKSDDTAVYYCVRDRSNGSGKRFESSNWFLDLWGRGTAVTVQS VL: QSALTQPRSVSGSPGQSVTISCTGTHNLVSWCQHQPGRAPKLLIYDFNKRPSGVPDRFSGSGSGGTASLTISGLQDEDDAEYFCWAYEAFGGGTKLTVL	> 50	0.091	0.135	> 50	> 50	0.102	0.062			
Germ12_NglycoSA_CysCA (antibody, V domains shown) VH: QVDLVQSGAVVKKPGDSVRVSCEAQGYRFPDYIIHWIRRAPGQGPEWMGWMNPMGGQVNIPWKFQGRVSMTRDTSIETAYMDLRGLRSDDTAVYYCVRDRSNGAGKRFESSNWFLDLWGRGTLVTVSS VL: QSALTQPRSVSGSPGQSVTISCTGTHNLVSWAQHQPGRAPKLLIYDFNKRPSGVPDRFSGSGSGGTASLTISGLQDEDDAEYFCWAYEAFGGGTKLTVL	> 50	0.062	0.042	> 50	> 50	0.088	0.028			
